{
  "source": "IntAct's records for PubMed 16469698",
  "target": "mfd_ecoli mfd (UniProt P30958)",
  "data": [
    {"substance": "DNA-directed RNA polymerase subunit beta (Escherichia coli (strain K12)) (from UniProt P0A8V2) E119A", "values": [
      {"measurement": "effect of a mutation on the interaction", "result": "decreasing interaction"}
    ]}
  ]
}
